Test results: the supplement of paper PMC10598134
± gives the standard deviation.

Experiment: collision cross section of modified peptide (TIMS, N2, iRT-aligned); higher = larger / more extended gas-phase ion
Method in brief: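 Collision cross section was derived from the Mason-Schamp equation. Each value averages 1–3 technical replicates of the most abundant feature per charge state, measured on a timsTOF Pro/HT in dda-PASEF mode (nitrogen, ~2.4 mbar) after a 120-min nanoflow C18 gradient at 60 °C. Synthetic peptide pools (~100 fmol/µL in 2% acetonitrile/0.1% formic acid, iRT standard spiked 1:40) were identified with MaxQuant, and 1/K0 was calibrated with three reference ions and aligned run-wise to the median iRT peptide deviation.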

[1] = charge state: 2, modification: Citrullination (R)
[2] = charge state: 3, modification: Methyl (R)
[3] = charge state: 2, modification: Nitro (Y)
[4] = charge state: 2, modification: Acetyl (K)
[5] = charge state: 3, modification: Acetyl (K)
[6] = charge state: 2, modification: Biotin
[7] = charge state: 3, modification: Biotin
[8] = charge state: 2, modification: Butyryl
[9] = charge state: 3, modification: Butyryl
[10] = charge state: 2, modification: Crotonyl
[11] = charge state: 3, modification: Crotonyl
[12] = charge state: 3, modification: Dimethyl (K)
[13] = charge state: 2, modification: Formyl
[14] = charge state: 3, modification: Formyl
[15] = charge state: 2, modification: Glutarylation
[16] = charge state: 3, modification: Glutarylation
[17] = charge state: 2, modification: GlyGly (K)
[18] = charge state: 3, modification: GlyGly (K)
[19] = charge state: 2, modification: Malonyl
[20] = charge state: 3, modification: Malonyl
[21] = charge state: 2, modification: Methyl (K)
[22] = charge state: 3, modification: Methyl (K)
[23] = charge state: 2, modification: Succinyl
[24] = charge state: 3, modification: Succinyl
[25] = charge state: 3, modification: Trimethyl (K)
[26] = charge state: 2, modification: hydroxyisobutyryl
[27] = charge state: 3, modification: hydroxyisobutyryl
[28] = charge state: 2, modification: Dimethyl (K)
[29] = charge state: 2, modification: Propionyl
[30] = charge state: 2, modification: Trimethyl (K)
[31] = charge state: 3, modification: Citrullination (R)
[32] = charge state: 2, modification: Phospho (Y)
[33] = charge state: 3, modification: Nitro (Y)
[34] = charge state: 3, modification: Phospho (Y)

## VRLQTTLR [_VR(Citrullination (R))LQTTLR_]
[1]
  collision cross section: 344.05 ± 1.2 Å²

## VRLQTTLR [_VR(Methyl (R))LQTTLR_]
Charge state: 2, modification: Methyl (R)
  collision cross section: 349.69 ± 0.95 Å²
[2]
  collision cross section: 439.94 ± 4.3 Å²

## VSFLSALEEYTK [_VSFLSALEEY(Nitro (Y))TK_]
[3]
  collision cross section: 400.94 ± 0.73 Å²

## VSPASSVDSNIPSSQGYKK [_VSPASSVDSNIPSSQGYK(Acetyl (K))K_]
[4]
  collision cross section: 458.38 ± 2.6 Å²
[5]
  collision cross section: 553.13 ± 0.49 Å²

## VSPASSVDSNIPSSQGYKK [_VSPASSVDSNIPSSQGYK(Biotin)K_]
[6]
  collision cross section: 474.43 Å²
[7]
  collision cross section: 539.94 ± 1.6 Å²

## VSPASSVDSNIPSSQGYKK [_VSPASSVDSNIPSSQGYK(Butyryl)K_]
[8]
  collision cross section: 463.23 ± 2.7 Å²
[9]
  collision cross section: 559.88 ± 1.1 Å²

## VSPASSVDSNIPSSQGYKK [_VSPASSVDSNIPSSQGYK(Crotonyl)K_]
[10]
  collision cross section: 464.78 ± 0.82 Å²
[11]
  collision cross section: 560.75 ± 1.6 Å²

## VSPASSVDSNIPSSQGYKK [_VSPASSVDSNIPSSQGYK(Dimethyl (K))K_]
[12]
  collision cross section: 536.37 ± 0.42 Å²

## VSPASSVDSNIPSSQGYKK [_VSPASSVDSNIPSSQGYK(Formyl)K_]
[13]
  collision cross section: 457.96 ± 0.14 Å²
[14]
  collision cross section: 550.3 ± 3 Å²

## VSPASSVDSNIPSSQGYKK [_VSPASSVDSNIPSSQGYK(Gluratylation)K_]
[15]
  collision cross section: 466.49 ± 3 Å²
[16]
  collision cross section: 552.93 ± 0.14 Å²

## VSPASSVDSNIPSSQGYKK [_VSPASSVDSNIPSSQGYK(GlyGly (K))K_]
[17]
  collision cross section: 469.54 ± 1.4 Å²
[18]
  collision cross section: 521.06 ± 4.6 Å²

## VSPASSVDSNIPSSQGYKK [_VSPASSVDSNIPSSQGYK(Malonyl)K_]
[19]
  collision cross section: 465.75 ± 0.51 Å²
[20]
  collision cross section: 526.18 ± 21 Å²

## VSPASSVDSNIPSSQGYKK [_VSPASSVDSNIPSSQGYK(Methyl (K))K_]
[21]
  collision cross section: 486.85 ± 1.2 Å²
[22]
  collision cross section: 544.11 ± 0.42 Å²

## VSPASSVDSNIPSSQGYKK [_VSPASSVDSNIPSSQGYK(Propionyl)K_]
Charge state: 3, modification: Propionyl
  collision cross section: 557.31 Å²

## VSPASSVDSNIPSSQGYKK [_VSPASSVDSNIPSSQGYK(Succinyl)K_]
[23]
  collision cross section: 467.79 ± 1.1 Å²
[24]
  collision cross section: 548.84 ± 1.1 Å²

## VSPASSVDSNIPSSQGYKK [_VSPASSVDSNIPSSQGYK(Trimethyl (K))K_]
[25]
  collision cross section: 548.09 ± 0.9 Å²

## VSPASSVDSNIPSSQGYKK [_VSPASSVDSNIPSSQGYK(hydroxyisobutyryl)K_]
[26]
  collision cross section: 468.85 ± 0.27 Å²
[27]
  collision cross section: 562.43 ± 0.42 Å²

## VTGGIFSVTK [_VTGGIFS(HexNAc (ST))VTK_]
Charge state: 2, modification: HexNAc (ST)
  collision cross section: 361.54 ± 1.2 Å²

## VTLEVGKVIQQGR [_VTLEVGK(Acetyl (K))VIQQGR_]
[4]
  collision cross section: 405.94 ± 0.47 Å²
[5]
  collision cross section: 479.97 ± 2.5 Å²

## VTLEVGKVIQQGR [_VTLEVGK(Biotin)VIQQGR_]
[6]
  collision cross section: 422.26 Å²
[7]
  collision cross section: 501.27 Å²

## VTLEVGKVIQQGR [_VTLEVGK(Butyryl)VIQQGR_]
[8]
  collision cross section: 412.79 ± 0.23 Å²
[9]
  collision cross section: 483.04 ± 1.9 Å²

## VTLEVGKVIQQGR [_VTLEVGK(Crotonyl)VIQQGR_]
[10]
  collision cross section: 412.55 ± 0.81 Å²
[11]
  collision cross section: 473.48 ± 1.6 Å²

## VTLEVGKVIQQGR [_VTLEVGK(Dimethyl (K))VIQQGR_]
[28]
  collision cross section: 422.85 ± 1.4 Å²
[12]
  collision cross section: 464.75 ± 1.6 Å²

## VTLEVGKVIQQGR [_VTLEVGK(Formyl)VIQQGR_]
[13]
  collision cross section: 402.06 ± 2.7 Å²
[14]
  collision cross section: 475.94 ± 2.1 Å²

## VTLEVGKVIQQGR [_VTLEVGK(Gluratylation)VIQQGR_]
[15]
  collision cross section: 418.56 ± 0.59 Å²
[16]
  collision cross section: 485.84 ± 1 Å²

## VTLEVGKVIQQGR [_VTLEVGK(GlyGly (K))VIQQGR_]
[17]
  collision cross section: 431.32 ± 0.96 Å²
[18]
  collision cross section: 486.06 ± 1.6 Å²

## VTLEVGKVIQQGR [_VTLEVGK(Malonyl)VIQQGR_]
[19]
  collision cross section: 413.16 ± 1.2 Å²
[20]
  collision cross section: 480.87 ± 1.8 Å²

## VTLEVGKVIQQGR [_VTLEVGK(Methyl (K))VIQQGR_]
[21]
  collision cross section: 428.74 ± 1.9 Å²
[22]
  collision cross section: 464.87 ± 3.7 Å²

## VTLEVGKVIQQGR [_VTLEVGK(Propionyl)VIQQGR_]
[29]
  collision cross section: 410.06 ± 0.37 Å²

## VTLEVGKVIQQGR [_VTLEVGK(Succinyl)VIQQGR_]
[23]
  collision cross section: 412.33 ± 0.54 Å²
[24]
  collision cross section: 481.23 ± 2 Å²

## VTLEVGKVIQQGR [_VTLEVGK(Trimethyl (K))VIQQGR_]
[30]
  collision cross section: 428.78 ± 1 Å²
[25]
  collision cross section: 471.08 ± 1.8 Å²

## VTLEVGKVIQQGR [_VTLEVGK(hydroxyisobutyryl)VIQQGR_]
[26]
  collision cross section: 414.48 ± 0.55 Å²
[27]
  collision cross section: 486.66 ± 1.9 Å²

## VTPHPSPRGSPLPTPK [_VTPHPSPR(Citrullination (R))GSPLPTPK_]
[1]
  collision cross section: 409.96 ± 0.55 Å²
[31]
  collision cross section: 504.78 ± 11 Å²

## VTPHPSPRGSPLPTPK [_VTPHPSPR(Methyl (R))GSPLPTPK_]
[2]
  collision cross section: 512.12 ± 9.6 Å²

## VTRYPILGIPQAHR [_VTR(Citrullination (R))YPILGIPQAHR_]
[31]
  collision cross section: 520.51 ± 0.78 Å²

## VTRYPILGIPQAHR [_VTR(Methyl (R))YPILGIPQAHR_]
[2]
  collision cross section: 524.3 ± 0.78 Å²

## VVDLLAPYAK [_VVDLLAPY(Nitro (Y))AK_]
[3]
  collision cross section: 371.07 ± 0.55 Å²

## VVDLLAPYAK [_VVDLLAPY(Phospho (Y))AK_]
[32]
  collision cross section: 379.49 ± 0.074 Å²

## VVPGYGHAVLR [_VVPGY(Nitro (Y))GHAVLR_]
[3]
  collision cross section: 383.51 ± 0.17 Å²
[33]
  collision cross section: 449.51 ± 1.1 Å²

## VVPGYGHAVLR [_VVPGY(Phospho (Y))GHAVLR_]
[32]
  collision cross section: 386.55 ± 0.062 Å²
[34]
  collision cross section: 451.71 Å²

## VYIASSSGSTAIKK [_VYIASSSGSTAIK(Acetyl (K))K_]
[4]
  collision cross section: 414.5 ± 2.5 Å²
[5]
  collision cross section: 503.2 ± 1.2 Å²

## VYIASSSGSTAIKK [_VYIASSSGSTAIK(Biotin)K_]
[6]
  collision cross section: 429.83 Å²

## VYIASSSGSTAIKK [_VYIASSSGSTAIK(Butyryl)K_]
[8]
  collision cross section: 422.89 ± 0.77 Å²
[9]
  collision cross section: 508.32 ± 2.9 Å²

## VYIASSSGSTAIKK [_VYIASSSGSTAIK(Crotonyl)K_]
[10]
  collision cross section: 419.06 ± 0.81 Å²
[11]
  collision cross section: 505.65 ± 0.46 Å²

## VYIASSSGSTAIKK [_VYIASSSGSTAIK(Dimethyl (K))K_]
[28]
  collision cross section: 434.74 ± 1.3 Å²
[12]
  collision cross section: 497.25 ± 0.75 Å²

## VYIASSSGSTAIKK [_VYIASSSGSTAIK(Formyl)K_]
[13]
  collision cross section: 408.95 ± 1.8 Å²
[14]
  collision cross section: 497.96 ± 1.5 Å²

## VYIASSSGSTAIKK [_VYIASSSGSTAIK(Gluratylation)K_]
[15]
  collision cross section: 420.03 ± 1.5 Å²
[16]
  collision cross section: 512.2 ± 1 Å²

## VYIASSSGSTAIKK [_VYIASSSGSTAIK(GlyGly (K))K_]
[17]
  collision cross section: 437.45 ± 1.4 Å²
[18]
  collision cross section: 498.73 ± 3.9 Å²

## VYIASSSGSTAIKK [_VYIASSSGSTAIK(Malonyl)K_]
[19]
  collision cross section: 409.24 ± 0.039 Å²

## VYIASSSGSTAIKK [_VYIASSSGSTAIK(Methyl (K))K_]
[21]
  collision cross section: 428.78 ± 1.9 Å²
[22]
  collision cross section: 495.87 ± 3.1 Å²

## VYIASSSGSTAIKK [_VYIASSSGSTAIK(Propionyl)K_]
[29]
  collision cross section: 415.66 ± 0.38 Å²

## VYIASSSGSTAIKK [_VYIASSSGSTAIK(Succinyl)K_]
[23]
  collision cross section: 413.08 ± 1.1 Å²
[24]
  collision cross section: 508.16 ± 1.6 Å²

## VYIASSSGSTAIKK [_VYIASSSGSTAIK(Trimethyl (K))K_]
[30]
  collision cross section: 434.92 ± 0.58 Å²
[25]
  collision cross section: 501.36 ± 1.6 Å²

## VYIASSSGSTAIKK [_VYIASSSGSTAIK(hydroxyisobutyryl)K_]
[26]
  collision cross section: 417.04 ± 1.1 Å²
[27]
  collision cross section: 511.39 ± 2 Å²

## VYPSSLSK [_VY(Nitro (Y))PSSLSK_]
[3]
  collision cross section: 327.32 ± 0.71 Å²

## VYPSSLSK [_VY(Phospho (Y))PSSLSK_]
[32]
  collision cross section: 344.53 ± 0.066 Å²

## VYSGHQGR [_VY(Nitro (Y))SGHQGR_]
[3]
  collision cross section: 327.94 ± 0.59 Å²
[33]
  collision cross section: 418.62 ± 1.2 Å²

## VYSGHQGR [_VY(Phospho (Y))SGHQGR_]
[32]
  collision cross section: 330.73 ± 0.068 Å²
[34]
  collision cross section: 415.14 ± 2.5 Å²

## VYSLFLDESR [_VY(Nitro (Y))SLFLDESR_]
[3]
  collision cross section: 377.85 ± 0.17 Å²

## VYSLFLDESR [_VY(Phospho (Y))SLFLDESR_]
[32]
  collision cross section: 376.54 ± 1.2 Å²

## VYVGNLGTGAGK [_VY(Nitro (Y))VGNLGTGAGK_]
[3]
  collision cross section: 354.85 ± 1.5 Å²

## VYVGNLGTGAGK [_VY(Phospho (Y))VGNLGTGAGK_]
[32]
  collision cross section: 364.53 ± 0.064 Å²

## YADLTEDQLPSCESLK [_Y(Nitro (Y))ADLTEDQLPSCESLK_]
[3]
  collision cross section: 442.66 ± 0.55 Å²
